Target: the molecule itself
Assay: SDS-PAGE and Western blot; IMAC peaks of solubilized MMP-9 from L. lactis, mixed 1:1 with Laemmli buffer, boiled at 90 °C for 10 min, run with 0.1% SDS, detected with anti-His-tag monoclonal antibody; bands of high molecular weight

B1: recombinant bovine MMP-9 fragment (Phe107-Pro449), C-terminally His-tagged, produced in L. lactis (domain or fragment)
chain: not shown
notes: matrix metalloproteinase 9 (MMP-9), bovine, fragment Phe107-Pro449 of NCBI NM_174744.2; The same fragment was also made in Clearcoli BL21(DE3) (pETDuet); no result on self-association is told for that material; also called matrix metalloproteinase 9; solubilized MMP-9; not shown: 6His-tag, C-terminal, kept
**Q.** Does B1 bind?
**A.** binds
